According to US20090053196:

T1: myc-tagged UFD-2 (^mycUFD-2), Q09349
T1 chain: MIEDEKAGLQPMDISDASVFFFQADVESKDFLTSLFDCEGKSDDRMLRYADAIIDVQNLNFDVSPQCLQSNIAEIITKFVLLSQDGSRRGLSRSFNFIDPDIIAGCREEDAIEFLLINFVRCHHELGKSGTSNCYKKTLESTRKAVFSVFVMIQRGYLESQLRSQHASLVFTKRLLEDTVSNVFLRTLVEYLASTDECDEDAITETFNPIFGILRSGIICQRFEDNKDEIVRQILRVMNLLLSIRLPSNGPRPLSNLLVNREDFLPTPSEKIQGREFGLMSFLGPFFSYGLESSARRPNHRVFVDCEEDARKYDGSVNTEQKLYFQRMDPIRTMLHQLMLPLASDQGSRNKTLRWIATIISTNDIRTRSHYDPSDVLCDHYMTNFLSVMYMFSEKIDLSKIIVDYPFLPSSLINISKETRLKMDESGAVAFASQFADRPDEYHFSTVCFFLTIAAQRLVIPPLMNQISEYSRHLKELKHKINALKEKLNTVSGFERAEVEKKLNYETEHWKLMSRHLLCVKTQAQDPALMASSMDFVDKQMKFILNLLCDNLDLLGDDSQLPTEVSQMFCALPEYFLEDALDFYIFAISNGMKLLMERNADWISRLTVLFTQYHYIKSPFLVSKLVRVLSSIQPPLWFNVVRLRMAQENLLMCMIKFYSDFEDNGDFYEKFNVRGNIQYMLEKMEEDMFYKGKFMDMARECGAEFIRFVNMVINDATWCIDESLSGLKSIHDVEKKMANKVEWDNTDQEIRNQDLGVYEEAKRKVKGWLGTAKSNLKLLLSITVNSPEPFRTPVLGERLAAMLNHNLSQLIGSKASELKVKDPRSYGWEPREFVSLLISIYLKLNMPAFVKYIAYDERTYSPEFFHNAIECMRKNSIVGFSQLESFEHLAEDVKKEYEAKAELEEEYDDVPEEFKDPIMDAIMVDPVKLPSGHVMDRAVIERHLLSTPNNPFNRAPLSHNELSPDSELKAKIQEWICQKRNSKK

B1: myc-tagged UFD-2 (^mycUFD-2) (protein)
chain: MIEDEKAGLQPMDISDASVFFFQADVESKDFLTSLFDCEGKSDDRMLRYADAIIDVQNLNFDVSPQCLQSNIAEIITKFVLLSQDGSRRGLSRSFNFIDPDIIAGCREEDAIEFLLINFVRCHHELGKSGTSNCYKKTLESTRKAVFSVFVMIQRGYLESQLRSQHASLVFTKRLLEDTVSNVFLRTLVEYLASTDECDEDAITETFNPIFGILRSGIICQRFEDNKDEIVRQILRVMNLLLSIRLPSNGPRPLSNLLVNREDFLPTPSEKIQGREFGLMSFLGPFFSYGLESSARRPNHRVFVDCEEDARKYDGSVNTEQKLYFQRMDPIRTMLHQLMLPLASDQGSRNKTLRWIATIISTNDIRTRSHYDPSDVLCDHYMTNFLSVMYMFSEKIDLSKIIVDYPFLPSSLINISKETRLKMDESGAVAFASQFADRPDEYHFSTVCFFLTIAAQRLVIPPLMNQISEYSRHLKELKHKINALKEKLNTVSGFERAEVEKKLNYETEHWKLMSRHLLCVKTQAQDPALMASSMDFVDKQMKFILNLLCDNLDLLGDDSQLPTEVSQMFCALPEYFLEDALDFYIFAISNGMKLLMERNADWISRLTVLFTQYHYIKSPFLVSKLVRVLSSIQPPLWFNVVRLRMAQENLLMCMIKFYSDFEDNGDFYEKFNVRGNIQYMLEKMEEDMFYKGKFMDMARECGAEFIRFVNMVINDATWCIDESLSGLKSIHDVEKKMANKVEWDNTDQEIRNQDLGVYEEAKRKVKGWLGTAKSNLKLLLSITVNSPEPFRTPVLGERLAAMLNHNLSQLIGSKASELKVKDPRSYGWEPREFVSLLISIYLKLNMPAFVKYIAYDERTYSPEFFHNAIECMRKNSIVGFSQLESFEHLAEDVKKEYEAKAELEEEYDDVPEEFKDPIMDAIMVDPVKLPSGHVMDRAVIERHLLSTPNNPFNRAPLSHNELSPDSELKAKIQEWICQKRNSKK
B2: myc-tagged CHN-1 (^mycCHN-1) (protein)
chain: MSSGAEQHNTNGKKCYMNKRYDDAVDHYSKAIKVNPLPKYYQNRAMCYFQLNNLKMTEEDCKRALELSPNEVKPLYFLGNVFLQSKKYSEAISCLSKALYHNAVITNAPDIENALKRARHQKYEEEESKRIVQDVEFHTYLESLIEKDRQENSENPEELQRADMAKKRLTELTLATQEKRQNREVPEMLCGKITLELMKEPVIVPSGITYDREEIVQHLRRIGHFDPVTRKPLTENEIIPNYALKEVIEKFLDDNPWAKYEPGGMV

Experiments:
[1] = target: FLAG-tagged UNC-45 (UNC-45^FLAG)
[2] = target: T1, myc-tagged UFD-2 (^mycUFD-2), Q09349

| Protein | in vitro ubiquitylation of UNC-45 (with E1 and the E2 LET-70), Western blot [1] | in vitro multiubiquitylation of UNC-45 with both enzymes present, Western blot [2] |
| --- | --- | --- |
| B1 | addition of one to three ubiquitins to the substrate protein UNC-45 | – |
| B2 | the addition of full-length CHN-1 proceeds to efficient ubiquitin conjugation. However, the majority of conjugates appeared to contain only one to three ubiquitin moieties | these enzymes together dramatically stimulated the multiubiquitylation reaction, yielding UNC-45 conjugates with significantly longer chains than those conjugated by CHN-1 or UFD-2 alone |
